Data published in PMC9784262.

System: Nterm (position 1, -----FR----)
Test: potentiometry
Details: 25 °C; not stated (no added salt mentioned); none stated (unbuffered aqueous surfactant solution, N2 atmosphere, magnetic stirring); aggregated (micellar): post-micellar surfactant concentration, exact concentration not stated

Question: With “PANHC14 (phenylalanine-arginine tetradecylamide dihydrochloride) (synthetic)” as the substance, how does the pKa read?
Answer: 5.9

Question: “PANHC8 (phenylalanine-arginine octyl amide dihydrochloride) (synthetic)” was tested. Which pKa did it give?
Answer: 6.9

Question: How did the pKa turn out when “PANHC12 (phenylalanine-arginine dodecyl amide dihydrochloride) (synthetic)” was run?
Answer: 6.1

Question: “PANHC10 (phenylalanine-arginine decyl amide dihydrochloride) (synthetic)” was tested. Which pKa did it give?
Answer: 6.9

System: Nterm (position 1, -----WR----)
Test: potentiometry
Details: 25 °C; not stated (no added salt mentioned); none stated (unbuffered aqueous surfactant solution, N2 atmosphere, magnetic stirring); aggregated (micellar): post-micellar surfactant concentration, exact concentration not stated

Question: Which pKa does the source give for “TANHC12 (tryptophan-arginine dodecyl amide dihydrochloride) (synthetic)” here?
Answer: 7.8

Question: How did the pKa turn out when “TANHC14 (tryptophan-arginine tetradecylamide dihydrochloride) (synthetic)” was run?
Answer: 7.0

Question: How did the pKa turn out when “TANHC10 (tryptophan-arginine decyl amide dihydrochloride) (synthetic)” was run?
Answer: 7.2
